# Experiments:
# Assay in all cases: radioligand binding
# [1] = target: HLA-DR DRB4*0101 (human (endogenous in EBV transformed cell lines))
# [2] = target: HLA-DR DRB3*0101 (human (endogenous in EBV transformed cell lines))
# [3] = target: HLA-DR DRB1*0301 (human (endogenous in EBV transformed cell lines))
# [4] = target: HLA-DR DRB1*0101 (human (endogenous in EBV transformed cell lines))
# [5] = target: HLA-DR DRB1*0405 (human (endogenous in EBV transformed cell lines))
# [6] = target: HLA-DR DRB5*0101 (human (endogenous in EBV transformed cell lines))
# [7] = target: HLA-DR DRB1*0701 (human (endogenous in EBV transformed cell lines))
# [8] = target: HLA-DR DRB1*0901 (human (endogenous in EBV transformed cell lines))
# [9] = target: HLA-DR DRB1*1101 (human (endogenous in EBV transformed cell lines))
# [10] = target: HLA-DR DRB1*1501 (human (endogenous in EBV transformed cell lines))
# [11] = target: HLA-DR DRB1*0802 (human (endogenous in EBV transformed cell lines))
# [12] = target: HLA-DR DRB1*0401 (human (endogenous in EBV transformed cell lines))
# [13] = target: HLA-DR DRB1*1302 (human (endogenous in EBV transformed cell lines))
substance,measurement,setting,value
DENV3 NS1 193-207 (peptide),IC50,[1],180 nM
same,IC50,[2],24.3 nM
DENV3 NS5 489-505 (peptide),IC50,[3],118 nM
same,IC50,[4],231 nM
same,IC50,[5],236 nM
same,IC50,[6],936 nM
same,IC50,[2],387 nM
DENV3 NS3 345-359 (peptide),IC50,[2],31.8 nM
DENV3 NS1 93-107 (peptide),IC50,[7],483 nM
DENV3 Envelope 396-410 (peptide),IC50,[3],424 nM
same,IC50,[4],4.89 nM
same,IC50,[7],296 nM
same,IC50,[8],39.9 nM
same,IC50,[9],38.9 nM
same,IC50,[10],258 nM
same,IC50,[6],26.8 nM
same,IC50,[11],106 nM
same,IC50,[2],424 nM
DENV3 Envelope 376-390 (peptide),IC50,[4],476 nM
same,IC50,[10],448 nM
same,IC50,[11],84.6 nM
same,IC50,[2],15.3 nM
DENV3 NS5 284-300 (peptide),IC50,[3],9.34 nM
same,IC50,[12],306 nM
same,IC50,[2],17.1 nM
DENV3 NS1 261-275 (peptide),IC50,[1],666 nM
DENV3 NS1 29-43 (peptide),IC50,[6],22.8 nM
same,IC50,[2],10.6 nM
DENV3 NS5 330-346 (peptide),IC50,[11],4.01 nM
DENV3 NS5 588-604 (peptide),IC50,[9],124 nM
DENV3 NS3 73-87 (peptide),IC50,[6],70.7 nM
DENV3 NS1 293-307 (peptide),IC50,[7],83.2 nM
same,IC50,[1],793 nM
DENV3 NS3 113-127 (peptide),IC50,[4],226 nM
same,IC50,[12],17.9 nM
DENV3 NS3 389-403 (peptide),IC50,[9],676 nM
DENV3 NS1 69-83 (peptide),IC50,[2],50.2 nM
DENV3 Envelope 366-380 (peptide),IC50,[7],552 nM
same,IC50,[11],762 nM
DENV3 NS5 780-795 (peptide),IC50,[1],168 nM
DENV3 Envelope 236-250 (peptide),IC50,[4],340 nM
same,IC50,[7],560 nM
same,IC50,[6],29.6 nM
same,IC50,[11],419 nM
DENV3 Envelope 316-330 (peptide),IC50,[9],153 nM
same,IC50,[10],361 nM
DENV3 NS5 670-686 (peptide),IC50,[1],971 nM
same,IC50,[6],478 nM
DENV3 NS5 193-209 (peptide),IC50,[4],87.5 nM
same,IC50,[7],144 nM
same,IC50,[13],15.1 nM
same,IC50,[10],199 nM
DENV3 NS5 29-45 (peptide),IC50,[9],289 nM
DENV3 Envelope 306-320 (peptide),IC50,[12],530 nM
DENV3 NS1 229-243 (peptide),IC50,[3],170 nM
same,IC50,[12],178 nM
same,IC50,[2],733 nM
DENV3 NS1 269-283 (peptide),IC50,[2],71.3 nM
DENV3 NS5 495-511 (peptide),IC50,[12],14.9 nM
same,IC50,[7],190 nM
same,IC50,[8],448 nM
same,IC50,[6],723 nM
DENV3 Envelope 251-265 (peptide),IC50,[4],588 nM
same,IC50,[6],722 nM
DENV3 NS3 313-327 (peptide),IC50,[11],39.7 nM
DENV3 NS5 642-658 (peptide),IC50,[3],775 nM
same,IC50,[4],166 nM
same,IC50,[9],665 nM
same,IC50,[10],59.4 nM
same,IC50,[6],5.07 nM
DENV3 Envelope 261-275 (peptide),IC50,[7],82.1 nM
DENV3 NS3 105-119 (peptide),IC50,[4],49 nM
same,IC50,[8],407 nM
same,IC50,[1],843 nM
same,IC50,[6],177 nM
same,IC50,[11],175 nM
DENV3 Envelope 301-315 (peptide),IC50,[12],26.6 nM
same,IC50,[11],58.9 nM
DENV3 NS3 125-139 (peptide),IC50,[3],47.2 nM
DENV3 NS1 297-311 (peptide),IC50,[4],228 nM
same,IC50,[12],484 nM
same,IC50,[7],262 nM
same,IC50,[10],736 nM
same,IC50,[11],561 nM
DENV3 NS5 570-586 (peptide),IC50,[6],27.8 nM
DENV3 NS1 313-327 (peptide),IC50,[1],503 nM
DENV3 NS5 838-854 (peptide),IC50,[8],680 nM
same,IC50,[2],79.2 nM
DENV3 Envelope 171-185 (peptide),IC50,[4],62.6 nM
same,IC50,[1],787 nM
same,IC50,[11],91.2 nM
DENV3 NS5 290-306 (peptide),IC50,[4],299 nM
DENV3 NS3 77-91 (peptide),IC50,[8],268 nM
same,IC50,[10],52.1 nM
same,IC50,[1],708 nM
DENV3 NS3 409-423 (peptide),IC50,[3],470 nM
same,IC50,[6],50.3 nM
same,IC50,[2],168 nM
DENV3 NS3 181-195 (peptide),IC50,[10],891 nM
same,IC50,[1],67.8 nM
DENV3 Envelope 281-295 (peptide),IC50,[3],16.7 nM
same,IC50,[10],652 nM
same,IC50,[2],31.1 nM
DENV3 NS3 381-395 (peptide),IC50,[2],399 nM
DENV3 NS5 523-539 (peptide),IC50,[3],9.29 nM
same,IC50,[4],733 nM
same,IC50,[12],7.25 nM
same,IC50,[9],170 nM
same,IC50,[1],445 nM
same,IC50,[2],44.8 nM
DENV3 NS3 429-443 (peptide),IC50,[2],5.72 nM
DENV3 NS5 582-598 (peptide),IC50,[9],106 nM
DENV3 Envelope 126-140 (peptide),IC50,[4],980 nM
same,IC50,[10],21.5 nM
same,IC50,[5],89.7 nM
same,IC50,[1],59.1 nM
same,IC50,[11],37.1 nM
DENV3 NS5 576-592 (peptide),IC50,[13],297 nM
same,IC50,[1],108 nM
DENV3 NS1 173-187 (peptide),IC50,[3],787 nM
same,IC50,[4],25.9 nM
same,IC50,[12],502 nM
same,IC50,[8],608 nM
same,IC50,[9],651 nM
same,IC50,[6],753 nM
same,IC50,[2],57.5 nM
DENV3 NS1 33-47 (peptide),IC50,[1],916 nM
same,IC50,[2],22.4 nM
DENV3 NS1 241-255 (peptide),IC50,[4],50.7 nM
DENV3 NS5 268-284 (peptide),IC50,[1],869 nM
DENV3 NS5 511-527 (peptide),IC50,[1],56.7 nM
same,IC50,[6],611 nM
DENV3 NS3 209-223 (peptide),IC50,[1],5.06 nM
DENV3 NS3 605-619 (peptide),IC50,[10],28.1 nM
same,IC50,[6],19.6 nM
same,IC50,[11],36.8 nM
DENV3 NS5 165-181 (peptide),IC50,[6],19.9 nM
DENV3 NS5 501-517 (peptide),IC50,[4],6.98 nM
same,IC50,[12],73.6 nM
same,IC50,[7],17.5 nM
same,IC50,[8],351 nM
same,IC50,[11],836 nM
DENV3 Envelope 346-360 (peptide),IC50,[4],4.5 nM
same,IC50,[12],343 nM
same,IC50,[7],67.6 nM
same,IC50,[13],14.5 nM
same,IC50,[10],332 nM
same,IC50,[11],288 nM
DENV3 NS1 133-147 (peptide),IC50,[2],62.3 nM
DENV3 NS5 301-316 (peptide),IC50,[2],536 nM
DENV3 NS3 393-407 (peptide),IC50,[7],456 nM
DENV3 NS1 233-247 (peptide),IC50,[3],72.6 nM
same,IC50,[12],87 nM
same,IC50,[2],159 nM
DENV3 NS3 53-67 (peptide),IC50,[6],329 nM
DENV3 NS5 295-311 (peptide),IC50,[2],980 nM
DENV3 NS1 121-135 (peptide),IC50,[4],355 nM
same,IC50,[1],382 nM
same,IC50,[11],45.5 nM
DENV3 NS5 39-55 (peptide),IC50,[1],563 nM
same,IC50,[2],749 nM
DENV3 NS3 61-75 (peptide),IC50,[13],84.5 nM
same,IC50,[6],143 nM
DENV3 NS5 658-674 (peptide),IC50,[11],453 nM
DENV3 NS3 137-151 (peptide),IC50,[4],843 nM
same,IC50,[10],502 nM
DENV3 NS3 241-255 (peptide),IC50,[7],525 nM
same,IC50,[6],16.7 nM
DENV3 NS3 101-115 (peptide),IC50,[4],201 nM
same,IC50,[10],447 nM
same,IC50,[5],725 nM
DENV3 NS5 558-574 (peptide),IC50,[3],586 nM
same,IC50,[7],134 nM
same,IC50,[9],173 nM
same,IC50,[10],401 nM
same,IC50,[5],667 nM
same,IC50,[6],391 nM
DENV3 NS5 336-352 (peptide),IC50,[1],747 nM
DENV3 NS3 185-199 (peptide),IC50,[3],870 nM
same,IC50,[12],171 nM
same,IC50,[9],71.8 nM
same,IC50,[5],972 nM
same,IC50,[1],7.64 nM
same,IC50,[11],21 nM
DENV3 NS3 69-83 (peptide),IC50,[10],29.5 nM
DENV3 Envelope 231-245 (peptide),IC50,[4],5.11 nM
same,IC50,[8],48.4 nM
same,IC50,[10],5.25 nM
same,IC50,[6],24.6 nM
DENV3 NS3 121-135 (peptide),IC50,[3],8.64 nM
DENV3 NS1 305-319 (peptide),IC50,[3],841 nM
DENV3 NS3 349-363 (peptide),IC50,[10],608 nM
same,IC50,[2],221 nM
DENV3 NS3 417-431 (peptide),IC50,[2],632 nM
DENV3 NS5 636-652 (peptide),IC50,[7],352 nM
same,IC50,[10],453 nM
DENV3 NS5 306-322 (peptide),IC50,[11],70.2 nM
DENV3 NS3 57-71 (peptide),IC50,[4],882 nM
same,IC50,[10],196 nM
DENV3 Envelope 51-65 (peptide),IC50,[4],80.6 nM
same,IC50,[9],40.4 nM
same,IC50,[10],982 nM
same,IC50,[1],154 nM
same,IC50,[11],130 nM
DENV3 NS1 225-239 (peptide),IC50,[12],322 nM
same,IC50,[13],58.9 nM
DENV3 NS5 447-463 (peptide),IC50,[6],25 nM
DENV3 NS3 413-427 (peptide),IC50,[3],261 nM
same,IC50,[2],96.1 nM
DENV3 NS5 45-61 (peptide),IC50,[7],453 nM
same,IC50,[9],82.5 nM
same,IC50,[1],8.53 nM
same,IC50,[6],449 nM
DENV3 NS3 357-371 (peptide),IC50,[3],436 nM
same,IC50,[4],15.9 nM
same,IC50,[7],29.5 nM
same,IC50,[8],100 nM
same,IC50,[10],15.7 nM
same,IC50,[1],759 nM
same,IC50,[6],273 nM
same,IC50,[2],711 nM
DENV3 NS3 109-123 (peptide),IC50,[4],148 nM
same,IC50,[11],557 nM
DENV3 Envelope 121-135 (peptide),IC50,[10],404 nM

# Reference: publication PMC3794980
